Like-named read-outs stand apart in the source and are kept apart here. IR800 = IRDye800CW

Assay [1] deals with T1, gastrin-releasing peptide receptor (human, UniProt P30550 1-384). The experiment in a line: radioligand binding.
Assay [2] has as its target T1, gastrin-releasing peptide receptor. The assay is described as follows: radioligand binding. The source holds these as a separate data set.

T1 sequence (P30550 whole entry): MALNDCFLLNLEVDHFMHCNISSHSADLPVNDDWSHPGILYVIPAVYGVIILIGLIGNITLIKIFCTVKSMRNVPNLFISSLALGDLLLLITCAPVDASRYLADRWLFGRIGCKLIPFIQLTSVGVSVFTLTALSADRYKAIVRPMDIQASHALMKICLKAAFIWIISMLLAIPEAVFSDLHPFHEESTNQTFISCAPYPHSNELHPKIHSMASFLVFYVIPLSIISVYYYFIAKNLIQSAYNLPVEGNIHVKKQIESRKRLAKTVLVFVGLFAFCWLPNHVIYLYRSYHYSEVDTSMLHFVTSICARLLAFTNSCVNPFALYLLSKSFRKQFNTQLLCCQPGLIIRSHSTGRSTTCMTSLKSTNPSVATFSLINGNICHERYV

For IR800-GSGQWAVGHLM-NH2 [IR800-GSG-t-BBN], the IC50 in assay [1] was 57.4 nM; in assay [2] it was 56 nM.
